In paper PMC11555231, “A cyclic peptide toolkit reveals mechanistic principles of peptidylarginine deiminase IV regulation” (Nature Communications, 2024):
Bridge positions count the residues as written; N and C are the ends. Square brackets hold non-standard residues; d marks the D form.

Key:
[1] = molecular target: His-tagged recombinant human PADI4 (His-PADI4) (human, UniProt Q9UM07 1-663); assay: cell-based or functional assay
[2] = molecular target: human PADI4 stably expressed in E14 mouse embryonic stem cells (hPADI4-stable) (human, UniProt Q9UM07 1-663); assay: cell-based or functional assay
[3] = molecular target: T1, PADI4_D165A (human, UniProt Q9UM07 1-663, D165A); assay: SPR; single cycle kinetics; biotinylated PADI4 (wild type or single-residue variant) captured on a Biotin CAPture chip, peptide or peptide analogue as analyte; 50 mM HEPES pH 7.5, 150 mM NaCl, 2 mM DTT, 0.05% Tween-20, 0.1% DMSO; 25 °C; CaCl2 concentration not told for these runs; conditions: both partners purified
T1 construct: human PADI4, residues 1-663, single substitution made by mutagenesis of the plasmid; source: E. coli BL21-DE3, purified (Ni-NTA, S200 SEC), as told for the wild type

[4] = molecular target: T2, PADI4_R394A (human, UniProt Q9UM07 1-663, R394A); assay: as above; conditions: both partners purified
T2 construct: human PADI4, residues 1-663, single substitution; source: E. coli BL21-DE3, purified (Ni-NTA, S200 SEC), as told for the wild type

[5] = molecular target: T3, PADI4_E167A (human, UniProt Q9UM07 1-663, E167A); assay: as above; conditions: both partners purified
T3 construct: human PADI4, residues 1-663, single substitution; source: E. coli BL21-DE3, purified (Ni-NTA, S200 SEC), as told for the wild type

[6] = molecular target: T4, PADI4_D168A (human, UniProt Q9UM07 1-663, D168A); assay: as above; conditions: both partners purified
T4 construct: human PADI4, residues 1-663, single substitution; source: E. coli BL21-DE3, purified (Ni-NTA, S200 SEC), as told for the wild type

[7] = molecular target: T5, PADI4_N373A (human, UniProt Q9UM07 1-663, N373A); assay: as above; conditions: both partners purified
T5 construct: human PADI4, residues 1-663, single substitution; source: E. coli BL21-DE3, purified (Ni-NTA, S200 SEC), as told for the wild type

[8] = molecular target: T6, PADI4_C166F (human, UniProt Q9UM07 1-663, C166F); assay: as above; conditions: both partners purified
T6 construct: source: E. coli BL21-DE3, purified (Ni-NTA, S200 SEC), as told for the wild type

[9] = molecular target: T7, bio-His-PADI4 with the active site covalently blocked by Cl-amidine (human, UniProt Q9UM07 1-663, biotin on the N-terminal Avi-Tag (BirA); active site covalently blocked with Cl-amidine (residue not stated)); assay: SPR; as a1 with 10 mM CaCl2 and the PADI4 active site blocked with Cl-amidine; Bio-His-PADI4 captured, peptide as analyte; 25 °C; 1:1 binding model; conditions: both partners purified
T7 construct: human peptidylarginine deiminase IV (PADI4), residues 1-663; Same protein as m1; also called 10 mM CaCl2 + Cl-amidine; source: E. coli BL21-DE3 co-expressing biotin ligase (BirA), purified (Ni-NTA, S200 SEC); treated with Cl-amidine; not shown: Avi-Tag (biotinylated), N-terminal, kept; His6, N-terminal, kept

[10] = molecular target: T8, N-terminally biotinylated recombinant human PADI4 (bio-His-PADI4) (human, UniProt Q9UM07 1-663, biotin on the N-terminal Avi-Tag (BirA)); assay: SPR; single cycle kinetics, Biacore T200 or S200; Bio-His-PADI4 captured on a Biotin CAPture chip (~2000 RU), peptide as analyte; 50 mM HEPES pH 7.5, 150 mM NaCl, 2 mM DTT, 0.05% Tween-20, 0.1% DMSO, 10 mM CaCl2; 25 °C; 1:1 binding model; conditions: both partners purified
T8 construct: human peptidylarginine deiminase IV (PADI4), residues 1-663; (vector p28BIOH-LIC, Addgene plasmid 62352); also called Bio-hPADI4 wt; PADI4_WT; source: E. coli BL21-DE3 co-expressing biotin ligase (BirA), purified (Ni-NTA, S200 SEC); not shown: Avi-Tag (biotinylated), N-terminal, kept; His6, N-terminal, kept

[11] = molecular target: T8, N-terminally biotinylated recombinant …; assay: SPR; as a1 but 0 mM CaCl2 (calcium-free running buffer); Bio-His-PADI4 captured, peptide as analyte; 25 °C; 1:1 binding model; conditions: both partners purified
[12] = molecular target: T8, N-terminally biotinylated recombinant …; assay: SPR; single cycle kinetics; biotinylated PADI4 (wild type or single-residue variant) captured on a Biotin CAPture chip, peptide or peptide analogue as analyte; 50 mM HEPES pH 7.5, 150 mM NaCl, 2 mM DTT, 0.05% Tween-20, 0.1% DMSO; 25 °C; CaCl2 concentration not told for these runs; conditions: both partners purified
[13] = molecular target: T9, N-terminally biotinylated human PADI4 (bio-His-PADI4) (human, UniProt Q9UM07 1-663, G55S (read from the plasmid's DNA at D1:p46, codon AGC)); not stated by the …, biotin on the Avi-Tag (BirA)); assay: SPR; as a1 with 10 mM Ca2+ and 200 µM Cl-amidine (PADI4 active site covalently blocked with Cl-amidine); conditions: both partners purified
T9 construct: human PADI4, residues 1-663, cloned into p28BIOH-LIC; The COLDER assays used His-PADI4 from the same plasmid made without BirA (not biotinylated); also called Bio-hPADI4 wt; Avi-His-PADI4; source: E. coli BL21-DE3 co-expressing biotin ligase (BirA), purified (Ni-NTA, S200 size exclusion); not shown: Avi-Tag, N-terminal, kept; His6, N-terminal, kept

[14] = molecular target: T9, N-terminally biotinylated human PADI4 …; assay: SPR; single cycle kinetics, Biacore T200 or S200; Bio-His-PADI4 captured on a Biotin CAPture chip (~2000 RU), peptide as analyte; 25 °C; 50 mM HEPES pH 7.5, 150 mM NaCl, 2 mM DTT, 0.05% Tween-20, 0.1% DMSO, 10 mM Ca2+; 1:1 binding model; conditions: both partners purified
[15] = molecular target: T1, PADI4_D165A; assay: cell-based or functional assay
[16] = molecular target: T2, PADI4_R394A; assay: cell-based or functional assay
[17] = molecular target: T3, PADI4_E167A; assay: cell-based or functional assay
[18] = molecular target: T4, PADI4_D168A; assay: cell-based or functional assay
[19] = molecular target: T6, PADI4_C166F; assay: cell-based or functional assay
[20] = molecular target: T9, N-terminally biotinylated human PADI4 …; assay: SPR; single cycle kinetics; Bio-His-PADI4 captured on a Biotin CAPture chip, peptide as analyte; 25 °C; 50 mM HEPES pH 7.5, 150 mM NaCl, 2 mM DTT, 0.05% Tween-20, 0.1% DMSO; CaCl2 concentration not stated for these data; 1:1 binding model; conditions: both partners purified

T8 sequence (Q9UM07 whole entry, the tested form may be a part): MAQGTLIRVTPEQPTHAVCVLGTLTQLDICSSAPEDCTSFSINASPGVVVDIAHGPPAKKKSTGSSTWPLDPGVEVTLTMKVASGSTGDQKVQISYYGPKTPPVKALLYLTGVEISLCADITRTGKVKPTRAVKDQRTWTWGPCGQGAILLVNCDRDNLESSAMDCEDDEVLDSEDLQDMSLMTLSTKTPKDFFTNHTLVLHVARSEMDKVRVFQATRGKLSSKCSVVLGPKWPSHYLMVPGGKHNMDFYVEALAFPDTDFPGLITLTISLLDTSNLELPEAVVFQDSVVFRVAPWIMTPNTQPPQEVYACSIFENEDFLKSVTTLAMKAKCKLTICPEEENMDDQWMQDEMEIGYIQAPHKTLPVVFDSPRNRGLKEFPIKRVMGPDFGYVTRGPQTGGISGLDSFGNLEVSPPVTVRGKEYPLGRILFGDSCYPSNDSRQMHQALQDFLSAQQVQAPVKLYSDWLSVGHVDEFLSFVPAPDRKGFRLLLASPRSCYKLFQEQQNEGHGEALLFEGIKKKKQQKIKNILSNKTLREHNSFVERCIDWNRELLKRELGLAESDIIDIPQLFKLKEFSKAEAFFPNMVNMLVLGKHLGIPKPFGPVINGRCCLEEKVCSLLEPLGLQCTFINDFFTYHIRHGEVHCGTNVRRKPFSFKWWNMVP
Chain of His-tagged recombinant human PADI4 (His-PADI4) (Q9UM07 whole entry): as the sequence (Q9UM07 whole entry, the tested form may be a part) above
T7 sequence (Q9UM07 whole entry, the tested form may be a part): as above
T9 sequence (Q9UM07 whole entry G55S/V82A/G112A, the tested form may be a part): as the sequence (Q9UM07 whole entry, the tested form may be a part) above, with G55S, V82A, G112A counted along it
T6 sequence (Q9UM07 whole entry C166F): as the sequence (Q9UM07 whole entry, the tested form may be a part) above, with C166F counted along it
T3 sequence (Q9UM07 whole entry E167A, the tested form may be a part): as the sequence (Q9UM07 whole entry, the tested form may be a part) above, with E167A counted along it
T1 sequence (Q9UM07 whole entry D165A, the tested form may be a part): as the sequence (Q9UM07 whole entry, the tested form may be a part) above, with D165A counted along it
T2 sequence (Q9UM07 whole entry R394A, the tested form may be a part): as the sequence (Q9UM07 whole entry, the tested form may be a part) above, with R394A counted along it
T4 sequence (Q9UM07 whole entry D168A, the tested form may be a part): as the sequence (Q9UM07 whole entry, the tested form may be a part) above, with D168A counted along it
T5 sequence (Q9UM07 whole entry N373A, the tested form may be a part): as the sequence (Q9UM07 whole entry, the tested form may be a part) above, with N373A counted along it
Chain of human PADI4 stably expressed in E14 mouse embryonic stem cells (hPADI4-stable) (Q9UM07 whole entry): as the sequence (Q9UM07 whole entry, the tested form may be a part) above

B1: PADI4_12 (peptide)
peptide: YEPCRFREILDL
modifications: not fully specified; L-tyrosine at position 1; cyclised via a thioether bond between the N-terminus (chloroacetylated) and the cysteine side chain (Cys4, from the letters); C-terminal amide
With B1 the “fold reduction of the calcium requirement K50(Ca2+) of PADI4 activity by 30 µM peptide (COLDER assay)” value [1] was 4 fold.

B2: PADI4_3 (peptide)
peptide: {CH2CO}-[dY]RDHHYRHPKYCG-NH2
modifications: thioether N-12
notes: cyclic peptide from RaPID selection 1 (10 mM CaCl2); source: synthetic peptide (Fmoc solid-phase synthesis, HPLC purified)
With B2 the “EC50 of inhibition of H3 citrullination in hPADI4-stable mES cells stimulated with KSR/2i for 3 h (high-content imaging)” value [2] was 0.2 µM, the Kd [3] was 61 nM and the Kd [4] was 8 nM. For the same binder, the Kd [5] was 7 nM, the Kd [6] was 20 nM and the Kd [7] was 83 nM. For the same binder, the Kd [8] was 3 nM.

B3: PADI4_10 (peptide)
peptide: YPWEISVWLLYCG
modifications: not fully specified; D-tyrosine at position 1; cyclised via a thioether bond between the N-terminus (chloroacetylated) and the cysteine side chain (Cys12, from the letters); C-terminal amide
notes: cyclic peptide from RaPID selection 2 (0 mM CaCl2); source: synthetic peptide (Fmoc solid-phase synthesis, HPLC purified)
Binder B3 has a Kd [9] greater than 2000 nM, a Kd [10] greater than 2000 nM and a Kd [11] greater than 2000 nM.

B4: PADI4_7 (peptide)
peptide: YYPKGSWGYKLFCG
modifications: not fully specified; D-tyrosine at position 1; cyclised via a thioether bond between the N-terminus (chloroacetylated) and the cysteine side chain (Cys13, from the letters); C-terminal amide
notes: cyclic peptide from RaPID selection 2 (0 mM CaCl2); also called PAD4_7; source: synthetic peptide (Fmoc solid-phase synthesis, HPLC purified)
For B4, the Kd [9] was 36 nM, the Kd [10] was 39 nM and the Kd [11] was 8 nM.

B5: PADI4_2 (peptide)
peptide: YRDHRSPFDGYCG
modifications: not fully specified; D-tyrosine at position 1; cyclised via a thioether bond between the N-terminus (chloroacetylated) and the cysteine side chain (Cys12, from the letters); C-terminal amide
With B5 the “IC50 of inhibition of PADI4 activity (COLDER assay, substrate BAEE, 10 mM CaCl2, 50 nM PADI4)” value [1] was 209 nM.

B6: PADI4_3_R2Cit (peptide)
chain: YRDHHYRHPKYCG
modifications: citrulline at position 2; else as PADI4_3: D-tyrosine at position 1; thioether cyclisation between the N-terminus and the cysteine side chain; C-terminal amide
B6 was tested, and the “IC50 of inhibition of PADI4 activity (COLDER assay)” value [1] was 1.1 µM and the Kd [12] was 20 nM.

B7: PADI4_6 (peptide)
peptide: YLVLTIRLVLCG
modifications: not fully specified; D-tyrosine at position 1; cyclised via a thioether bond between the N-terminus (chloroacetylated) and the cysteine side chain (Cys11, from the letters); C-terminal amide
notes: as for B2
B7 was tested, and the Kd [9] was greater than 2000 nM, the Kd [10] was greater than 2000 nM and the Kd [11] was greater than 2000 nM.

B8: PADI4_5 (peptide)
peptide: YATPWLIVVLCG
modifications: not fully specified; D-tyrosine at position 1; cyclised via a thioether bond between the N-terminus (chloroacetylated) and the cysteine side chain (Cys11, from the letters); C-terminal amide
notes: as for B2
For B8, the Kd [9] was greater than 2000 nM, the Kd [10] was greater than 2000 nM and the Kd [11] was greater than 2000 nM.

B9: PADI4_9 (peptide)
peptide: YAQWYIWVLLCG
modifications: not fully specified; D-tyrosine at position 1; cyclised via a thioether bond between the N-terminus (chloroacetylated) and the cysteine side chain (Cys11, from the letters); C-terminal amide
notes: as for B3
B9 gave a Kd [9] greater than 2000 nM, a Kd [10] greater than 2000 nM and a Kd [11] greater than 2000 nM.

B10: PADI4_12 (peptide)
peptide: YEPCRFREILDL
modifications: not fully specified; acetylated N-terminus (L-tyrosine 1) joined by a thioether bond to the side chain of Cys4 (cyclic); C-terminal amide
notes: cyclic peptide from RaPID selection 3; also called PAD4_12; source: synthetic peptide (Fmoc solid-phase synthesis, HPLC-purified)
With B10 the koff [13] was 0.2 s⁻¹, the kon [13] was 300000 M⁻¹ s⁻¹ and the Kd [14] was 679 nM. It also gave a koff [14] of 0.1 s⁻¹ and a kon [14] of 200000 M⁻¹ s⁻¹.

B11: PADI4_1 (peptide)
peptide: YFYRIGFWYPNYQCG
modifications: not fully specified; D-tyrosine at position 1; cyclised via a thioether bond between the N-terminus (chloroacetylated) and the cysteine side chain (Cys14, from the letters); C-terminal amide
notes: cyclic peptide from RaPID selection 1 (10 mM CaCl2); also called PAD4_1; source: synthetic peptide (Fmoc solid-phase synthesis, HPLC purified)
For B11, the Kd [9] was 727 nM, the Kd [10] was 205 nM and the Kd [11] was 105 nM.

B12: PADI4_11 (peptide)
peptide: {CH2CO}-YESCRYRQVLQL-NH2
modifications: thioether N-4
notes: cyclic (lariat) peptide from RaPID selection 3 (10 mM CaCl2 + Cl-amidine); also called PAD4_11; source: synthetic peptide (Fmoc solid-phase synthesis, HPLC purified)
With B12 the “ratio of K50(Ca2+) with DMSO to K50(Ca2+) with 30 µM PADI4_11 (COLDER assay)” value (“ratio of K50(Ca2+) with DMSO” for short) [15] was 1.5 fold, the “ratio of K50(Ca2+) with DMSO” value [16] was 1.1 fold and the “ratio of K50(Ca2+) with DMSO” value [17] was 2.7 fold. The “ratio of K50(Ca2+) with DMSO” value [18] was 2.9 fold, the “ratio of K50(Ca2+) with DMSO” value [19] was 0.9 fold and the Kd [3] was 3000 nM. It also gave a Kd [4] greater than 10000 nM, a Kd [5] of 700 nM and a Kd [6] of 4000 nM. The Kd [7] was greater than 10000 nM and the Kd [8] was greater than 10000 nM.

B13: PADI4_11 (peptide)
peptide: YESCRYRQVLQL
modifications: not fully specified; acetylated N-terminus (L-tyrosine 1) joined by a thioether bond to the side chain of Cys4 (cyclic); C-terminal amide
notes: cyclic peptide from RaPID selection 3; also called PAD4_11; source: synthetic peptide (Fmoc solid-phase synthesis, HPLC-purified)
For B13, the koff [13] was 0.1 s⁻¹, the kon [13] was 300000 M⁻¹ s⁻¹ and the koff [14] was 0.1 s⁻¹. It also gave a kon [14] of 200000 M⁻¹ s⁻¹.

B14: PADI4_4 (peptide)
peptide: YHRLIVVIYVCG
modifications: not fully specified; D-tyrosine at position 1; cyclised via a thioether bond between the N-terminus (chloroacetylated) and the cysteine side chain (Cys11, from the letters); C-terminal amide
notes: as for B2
B14 gave a Kd [9] greater than 2000 nM, a Kd [10] greater than 2000 nM and a Kd [11] greater than 2000 nM.

B15: PADI4_3i (peptide)
chain: YDRHHYRHPKYCG
modifications: not fully specified; D-tyrosine at position 1; acetylated N-terminus joined by a thioether bond to the side chain of Cys12 (cyclic); C-terminal amide
In the case of B15, the Kd [20] is reported as greater than 10 µM.

B16: PADI4_8 (peptide)
peptide: YTLWTVLVVICCG
modifications: not fully specified; D-tyrosine at position 1; cyclised via a thioether bond between the N-terminus (chloroacetylated) and the cysteine side chain (the cysteine marked C(S-), Cys11 from the letters); C-terminal amide
notes: as for B3
With B16 the Kd [9] was greater than 2000 nM, the Kd [10] was greater than 2000 nM and the Kd [11] was greater than 2000 nM.
